Here are results for 2 molecules from US20100129347A1 (OSAKA UNIVERSITY, published 2010).

For test [1], the target named is T1, glycoprotein B (gB) of HSV-1 (HSV-1, UniProt P06436 30-903).
T1 construct: also called protein of 110 kDa; PILR-recognizing ligand
The experiment in a line: immunoprecipitation from lysate of HSV-1-infected 293T cells, SDS-PAGE, silver stain.

The target in test [2] is T2, FLAG-tagged extracellular region of gB (29th to 720th amino acids) with transmembrane and intracellu (HSV-1; mouse, UniProt P06436 29-720).
T2 construct: also called cell expressing gB; cells to which gB had been transfected
The experiment in a line: flow cytometry on transfected 293T cells. Background: A flow cytometer gives signals particle by particle.

B1: human CD200-Ig fusion protein (Fc fusion)
chain: QVQVVTQDEREQLYTPASLKCSLQNAQEALIVTWQKKKAVSPENMVTFSENHGVVIQPAYKDKINITQLGLQNSTITFWNITLEDEGCYMCLFNTFGFGKISGTACLTVYVQPIVSLHYKFSEDHLNITCSATARPAPMVFWKVPRSGIENSTVTLSHPNGTTSVTSILHIKDPKNQVGKEVICQVLHLGTVTDFKQTVNKG
notes: Control for PILR-Ig; also called control Ig; not shown: Ig part not described
For B1, the binding result in test [1] is given as “no binding”.

B2: HVEM-Ig (Fc fusion)
chain: LPSCKEDEYPVGSECCPKCSPGYRVKEACGELTGTVCEPCPPGTYIAHLNGLSKCLQCQMCDPAMGLRASRNCSRTENAVCGCSPGHFCIVQDGDHCAACRAYATSSPGQRVQKGGTESQDTLCQNCPPGTFSPNGTLEECQHQTKCSWLVTKAGAGTSSSHWV
notes: not shown: Ig part not described
In the case of B2, the binding result in test [2] is “no binding”.
